# Assay results published in the supplement of paper PMC9170038.
# Tested on: MS2 coat protein
# Test: apparent KD of MS2 coat protein; designed switch direction (-1 OFF switch, 1 ON switch): -1; higher = weaker reporter binding
# Method in brief: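 Designed RNA switches with common flanks were transcribed on Illumina chips by stalled E. coli RNA polymerase and titrated with SNAP-549-labelled MS2 coat protein, from 0.7 or 1.5 nM doubling to 3 µM, in Tris-HCl pH 7.5 buffer with KCl, MgCl2, BSA, DTT, tRNA and Tween-20. Steps lasted 0.8–1.5 h (lowest) to 10–20 min (highest). Titrations ran without input, with 200 uM small-molecule ligand, or with an oligonucleotide input. Normalised cluster fluorescence was curve-fitted, and apparent KD is the per-design median over clusters.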
# [1] = Eterna round: R95, input ligand: FMN 200 uM
# [2] = Eterna round: R95, input ligand: microRNA oligo, concentration not stated
# [3] = Eterna round: R95, input ligand: none
# [4] = input ligand: microRNA oligo, concentration not stated
Sequence,apparent KD of MS2 coat protein (input ligand: FMN 200 uM) [nM],apparent KD of MS2 coat protein (input ligand: none) [nM],apparent KD of MS2 coat protein [1] [nM],apparent KD of MS2 coat protein [2] [nM],apparent KD of MS2 coat protein [3] [nM],apparent KD of MS2 coat protein [4] [nM]
"ACUUAUGCGGAGGAUAUUUAACGUAGCGAAAGUAAAGAAGGCCGAACAUGAGGAUCACCCAUGUGGAGGUGUAA [Eternabot (L1) Solution 24] (Eterna round: R97, puzzle: Exclusion 6)",92.5,23,–,–,–,–
"ACUUAUUGAGGAUAUACAGAUUAUUACAUGAGGAUCACCCAUGUUCUUCAAUGUAUAUAUGUAGAAGGCAGAGGAA [JL-ex5-4.24 Malcolm mod] (Eterna round: R97, puzzle: Exclusion 5)",87.6,39.7,–,–,–,–
"ACUUGCGAUAUGCUCGUCUUAUUUUUGUUGACGUUCUAUACAUGAGGAUCACCCAUGUUUUGUUCCUUGUGCUGGUA [JR_SV3TOV2_Sub072] (puzzle: Sensor v3, turn-off variant 2)",–,–,161,170,184,–
"ACUUGUGUUGAGGAUAUGCGCCGGCUCGCUGGCGCAGAAGGCGGCACAUGAGGAUCACCCAUGUCAGUUCGCGU [salish99_ex6_r004_002] (Eterna round: R97, puzzle: Exclusion 6)",300,26.4,–,–,–,–
"ACUUUUUGAGGAUAUACAUUUAUCCACAUGAGGAUCACCCAUGUACAAACAUGUAUUUGUGUAGAAGGCAGAAGAA [JR_Ex5_Sub069] (Eterna round: R97, puzzle: Exclusion 5)",54.5,60.7,–,–,–,–
AGAAAGCAAGGAUAUACAAGGAAACGACGGAAAGUAGAGAGACAUGAGGAUCACCCAUGUAGAAGGUGCGAGAA [JR_Exclu2_Sub032] (puzzle: Exclusion 2),–,–,33.8,28.7,26.5,–
"AGAAAUGCCCAUGGCCACAAGCUUUUUGCUUAUCUUACCACAUGAGGAUCACCCAUGUGACAUGGGCUCCUGAUAAU [Teedor] (puzzle: Sensor v3, turn-off variant 2)",–,–,18.5,19.4,17.1,–
"AGAAAUGCCCAUGGCCGCAAGCCUUUUGCUUGUCUUACCACAUGAGGAUCACCCAUGUGACAUGGGCUCCUGAUAAU [Zace] (puzzle: Sensor v3, turn-off variant 2)",–,–,12.6,10.4,11,–
"AGAAUGCGAGGAUAUACAGCAAGAUAGCAAAAGACCCUCCAACAUGAGGAUCACCCAUGUAGAAGGCGCAUUCA [Eternabot (Original) Solution 19] (Eterna round: R97, puzzle: Exclusion 2)",110,109,–,–,–,–
"AGACGUUAACAGGAUAUGGCCCUGCCGCAAGCGUUAGAAGGGUUGACAUGAGGAUCACCCAUGUGUGAUAGAAG [Eternabot (L1) Solution 95] (Eterna round: R97, puzzle: Exclusion 6)",217,316,–,–,–,–
"AGAGAAUACUCAGGAUAUCUUAAUAGAAAGAGUAGAGAAGGGAGACAUGAGGAUCACCCAUGUGAAGUCUUGAGACUACAUGGU [Prohibition 28 - Jieux - Exclusion NG 1] (Eterna round: R96, puzzle: Exclusion NG 1)",–,–,–,–,–,305
"AGAGAAUAGACAGGAUAUGAGAAUAGAUAGAGCUCAGAAGGGUCACAUGAGGAUCACCCAUGUGAAGUCUUGAGGCUGCGUGGA [Prohibition 19 - Jieux - Exclusion NG 1] (Eterna round: R96, puzzle: Exclusion NG 1)",14.6,18.3,–,–,–,10.9
"AGAGAGUCAGGAUAUGACGAAGAGAACAUGAGGAUCACCCAUGUAGCUUCGUAAUUAUCGUCAGAAGGGACGAACU [JR_Ex5_Sub089] (Eterna round: R97, puzzle: Exclusion 5)",15.7,14.2,–,–,–,–
"AGAGAUGCCCAUGGCCGCAAGCUUUUUGCUUGUCUUACCACAUGAGGAUCACCCAUGUGACAUGGGCUCCUUAUAAU [Essoator] (puzzle: Sensor v3, turn-off variant 2)",–,–,13.5,9.99,12.1,–
"AGAGUGCUGCGAGGAUAUACAUGAGGAUCACCCAUGUUUUCGUGUGAGGCUUUGCCUCACACGAAGUAGAAGGCGCAGUACUCU [Mat - Exclusion NG 2 - Mod of JL - D31] (Eterna round: R96, puzzle: Exclusion NG 2)",7.9,12.2,–,–,–,8.79
"AGAUCACAUGAGGAUCACCCAUGUCAGGAUAUCGUCACUGGAGCCUCGGCUCCAGUGACGAGAAGGGAUAAUUA [E1/4-A2] (Eterna round: R97, puzzle: Exclusion 1)",116,69,–,–,–,–

Sequence,apparent KD of MS2 coat protein (input ligand: FMN 200 uM) [nM],apparent KD of MS2 coat protein (input ligand: none) [nM],apparent KD of MS2 coat protein [1] [nM],apparent KD of MS2 coat protein [2] [nM],apparent KD of MS2 coat protein [3] [nM],apparent KD of MS2 coat protein [4] [nM]
"AGAUCUUCCGUAAGGAUAUGUGUGAAACAGACGGCACAGAAGGUACAUGAGGAUCACCCAUGUUACGCCGCGUA [Eternabot (L1) Solution 85] (Eterna round: R97, puzzle: Brourd's mod of Exclusion 4)",62.3,19.1,–,–,–,–
"AGAUGCUCAAGUCGACAUGAGGAUCACCCAUGUACAGUUAACGAGGAUAUCCGAGAUAAAUAAUAGGAGAAGGCGUGAUCAUGA [Ex NG3 #3] (Eterna round: R96, puzzle: Exclusion NG 3)",154,123,–,–,–,78.2
AGAUGGCGAGGAUAUACAUGAGGAUCACCCAUGUGAAGAGAAAGAGUGAGGAAGAAAAGUAGAAGGCGCUGUCA [Mat - Exclusion 3 - Mod of Salish D29] (puzzle: Exclusion 3),–,–,897,99.7,88.2,–
"AGAUGGCGAGGAUAUACAUGAGGAUCACCCAUGUGAAGAUAAAGAGUGAGGAAGAAAAGUAGAAGGCGCUGUCA [Mat - Exclusion 3 - Mod of Salish D28] (Eterna round: R96, puzzle: Exclusion 3)",–,–,–,–,–,103
AGAUGGCGAGGAUAUACAUGAGGAUCACCCAUGUGAAGAUAAAGAGUGAGGAAGAAAAGUAGAAGGCGCUGUCA [Mat - Exclusion 3 - Mod of Salish D28] (puzzle: Exclusion 3),–,–,351,106,123,–
"AGAUGUAGAUACCGAUCCUACAUGAGGAUCACCCAUGUAGCUAGACGUGCGGGCGGCGCUCGUCGGACUACCAGUAG [salish99_TOv1_r3_095] (puzzle: Sensor v3, turn-off variant 1)",–,–,163,155,232,–
"AGCACGCUUUUGCUCGAUCACAUGAGGAUCACCCAUGUGUGCUAAUAGGCCAAGGUGAAAGCCUCAGACAUAGUUUA [Eternabot (L1) Solution 1] (Eterna round: R97, puzzle: Sensor, turn-off variant 1)",153,173,–,–,–,–
AGCAUGGUAGGAUAUACGGAGCAUUAGGGUUUGUUGUGUGGACAUGAGGAUCACCCAUGUAGAAGGGCCGUGCA [Mat - Exclusion 2 - Mod of JL - D83] (puzzle: Exclusion 2),–,–,–,33.5,–,–
"AGCCACAGAGGAUAUACAUACAUCCAGUAGCAGAUAUUGCUACAUGAGGAUCACCCAUGUAGAAGGCUGUGGCA [Omei Ex2 BD B21] (Eterna round: R97, puzzle: Exclusion 2)",139,1040,–,–,–,–
"AGCCCUGCAGGAUAUGCCCGGGAUAACAUGAGGAUCACCCAUGUGACUGAUUGUUAUUCUGCAGAAGGGUAUGGGA [JL-EX5-4.16 ViennaUCT mod] (Eterna round: R97, puzzle: Exclusion 5)",404,322,–,–,–,–
AGCCUACAUGAGGAUCACCCAUGUCAGGAUAUCUCGCGGCGCGUCAAGUUCACGCCGCAGAGAAGGGACUCGGG [Ceusxeatis] (puzzle: Exclusion 1),–,–,–,37.6,–,–
"AGCGAAAAGGCAGGAUAUGAGAAUAGAUAGAGCUCAGAAGGGCCACAUGAGGAUCACCCAUGUAAAGUCUUGAGGCUGCGUGGU [Prohibition 12 - Jieux - Exclusion NG 1] (Eterna round: R96, puzzle: Exclusion NG 1)",488,60.4,–,–,–,68.4
"AGCGAUCAUGUUAGGAUAUCCAAGCAGACGCUCAAGGAGAAGGAACAUGAGGAUCACCCAUGUUUGAUCCAAAC [Usrediza] (Eterna round: R97, puzzle: Brourd's mod of Exclusion 4)",104,19.7,–,–,–,–
"AGCGGUGUUCAGGAUAUCUGGUUAUGACACAUGAGAGAAGGGAGCACAUGAGGAUCACCCAUGUGACCUUCGCG [Eternabot (Original) Solution 23] (Eterna round: R97, puzzle: Exclusion 6)",16,15.5,–,–,–,–
"AGCGUGGAGACAGGAUAUGAGAAUAGAUAGAACUCAGAAGGGUCACAUGAGGAUCACCCAUGUAAAGUCUUGAGGAUGAGUGGU [Prohibition 5 - Jieux - Exclusion NG 1] (Eterna round: R96, puzzle: Exclusion NG 1)",119,51.1,–,–,–,29
"AGCGUGGAGACAGGAUAUGAGAAUAGAUAGAACUCAGAAGGGUCACAUGAGGAUCACCCAUGUAAAGUCUUGAGGCUGCGUGGU [Prohibition 7 - Jieux - Exclusion NG 1] (Eterna round: R96, puzzle: Exclusion NG 1)",341,109,–,–,–,74.1
